This passage reports Neutralizing activity (%) Mean results from US20210292392A1.

This assay has as its target full length spike (S) protein of SARS-CoV-2 (SARS-CoV-2) (UniProt P0DTC2). The assay can be described thus: cell-based or functional assay.

VRC01 (antibody) came in with a Neutralizing activity (%) Mean at 0.0228624 µg/ml of 13.2%, a Neutralizing activity (%) Mean at 0.0685871 µg/ml of 10.4%, a Neutralizing activity (%) Mean at 0.2057613 µg/ml of 14.4% and a Neutralizing activity (%) Mean at 0.6172839 µg/ml of 24.9%. Besides, the Neutralizing activity (%) Mean at 1.851852 µg/ml is 8.1%, the Neutralizing activity (%) Mean at 5.555555 µg/ml was 27.1%, the Neutralizing activity (%) Mean at 16.66667 µg/ml is 26.6% and the Neutralizing activity (%) Mean at 50 µg/ml was 33.9%.
